{"source": "patent US20030165991A1", "key": {"[1]": {"molecular_target": "Monoclonal antibody mAB 6F5 (anti-deoxynivalenol monoclonal antibody from hybridoma cell line 6F5)", "assay": "CD-ELISA, immobilized mAB 6F5; C430 competing with DON-HRP or C430-HRP conjugate"}, "[2]": {"molecular_target": "antiserum from C430-BSA-immunized mice", "assay": "CI-ELISA, immobilized phage-displayed DONPEP.2, antiserum after the fourth injection, free C430 as competitor"}}}
{"binder": "H-SWGPFPFGGGSC-OH", "note": "[synthetic peptide C430 (NH2-…-COOH)]", "values": [{"measurement": "IC50", "setting": "[1]", "result": "640 to 800", "unit": "nM"}, {"measurement": "IC50", "setting": "[2]", "result": 390, "unit": "nM"}]}
